According to patent publication US12466853B2, “Selective targeting of apoptosis proteins by structurally-stabilized and/or cysteine-reactive NOXA peptides” (priority 2017, dated 2025):
Changes are numbered by the printed parent chain. Positions of bridges follow the written chain, without caps; N, C: chain ends. Non-standard residues stand in square brackets, D forms with d. No end group written: not given here. R8 = C=CCCCCCC[C@@](C)(N)C(=O)O; S5 = C=CCCC[C@](C)(N)C(=O)O

Key:
[1] = system: MV4;11 cells; test: Cell viability (CellTiter-Glo) and CalcuSyn synergy, MV4;11
Experimental: (§1) Cell viability and caspase-3/7 activation was measured using CellTiter-Glo and Caspase-Glo 3/7 chemiluminescence reagents (Promega), respectively, and luminescence was detected by a Spectramax M5 microplate reader. Synergy of drug interactions was calculated using the CalcuSyn software (Biosoft).

[2] = system: U937 cells; test: Cell viability (CellTiter-Glo) and CalcuSyn synergy, U937; conditions: U937 cells (BFL-1-dependent)
Experimental: as §1

[3] = target: T1, GST-MCL-1ΔNΔC (Homo sapiens, UniProt Q07820); test: Streptavidin pulldown from recombinant protein mixture, MCL-1; format: binding; conditions: equimolar mixture of recombinant MCL-1, BCL-XL, BFL-1 and biotinylated SAHB, silver stain
T1 construct: BCL-XLΔC (aa 1-212) and MCL-1ΔNΔC (aa 172-329) were cloned into the PGEX-4T-1; made in house; host or cells: Escherichia coli BL21(DE3)
T1 sequence (Q07820 172-329, stated change not applied): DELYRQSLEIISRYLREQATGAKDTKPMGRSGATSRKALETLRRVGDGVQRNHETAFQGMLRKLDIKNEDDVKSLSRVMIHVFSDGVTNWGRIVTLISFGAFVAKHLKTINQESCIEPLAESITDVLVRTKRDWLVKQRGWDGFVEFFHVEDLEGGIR
Experimental: (§2) WT His-BFL-1ΔC, BCL-XLΔC (tagless), and GST-MCL-1ΔNΔC (1 μM each) were combined and incubated with 3 mM DTT in PBS for thirty minutes at room temperature. Mixtures were treated with vehicle or the indicated C-terminally biotinylated NOXA SAHB (1 μM) for four hours and were then added to 30 μL PBS-washed high-capacity streptavidin (SA) agarose beads (Thermo Fisher Pierce) and incubated with rotation at room temperature for two hours. The beads were then washed three times with NP-40 lysis buffer (1% NP-40, 50 mM Tris pH 8, 100 mM NaCl, 2.5 mM MgCl2) and three times with PBS. To elute bound protein, beads were boiled for ten minutes with 10% SDS containing 10 mg/mL biotin. After elution, samples were boiled with 3×LDS and 2M DTT for twenty minutes. Gel electrophoresis using a 12% Bis-Tris gel was conducted on inputs (2%) and eluates (5 μL) and gels were developed using the Pierce silver staining kit (Thermo Fisher).

[4] = target: T2, HA-BFL-1ΔC C4S/C19S / tBID (Homo sapiens, UniProt Q16548, C19S/C4S); test: BFL-1/BH3 complex disruption: competition with tBID in 293T lysates; format: binding; conditions: anti-HA immunoprecipitation
T2 construct: Recombinant anti-apoptotic BFL-1ΔC (aa 1-151) and its cysteine to serine mutants were cloned into PET17b; expressed in transfected cells; host or cells: 293T (lysate)
T2 sequence (Q16548 1-151 C4S/C19S): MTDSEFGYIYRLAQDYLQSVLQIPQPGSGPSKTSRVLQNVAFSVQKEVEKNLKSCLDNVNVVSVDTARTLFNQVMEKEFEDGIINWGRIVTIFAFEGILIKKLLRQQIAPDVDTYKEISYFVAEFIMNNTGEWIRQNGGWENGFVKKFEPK
Experimental: (§3) To evaluate the capacity of biotinylated SAHBs to compete with tBID for interactions with BFL-1 and MCL-1, 293T cells were transfected with either HA-BFL-1ΔC C4S/C19S or FLAG-MCL-1 in the p3XFLAG-CMV-10 vector (Sigma) as above. After 24 hr, cells were trypsinized, washed with PBS, lysed in 1% CHAPS buffer, and the supernatant collected for protein concentration determination by BCA kit. Lysate samples (0.5 mg) were incubated with 0.25 μM recombinant tBID (R&D Systems) and 5 μM biotinylated NOXA SAHBs for 6 h at RT. The mixtures were then subjected to HA or FLAG immunoprecipitation, followed by western analysis using 1:1000 dilutions of HA (Sigma Aldrich, #12CA5), FLAG (Sigma-Aldrich, F7425), and BID (Santa Cruz sc-11423) antibodies.

[5] = target: T3, BCL-XLΔC (tagless) (Homo sapiens, UniProt Q07817); test: Streptavidin pulldown from recombinant protein mixture, BCL-XL; format: binding; conditions: equimolar mixture of recombinant MCL-1, BCL-XL, BFL-1 and biotinylated SAHB, silver stain
T3 construct: Recombinant anti-apoptotic BCL-XLΔC (aa 1-212) and MCL-1ΔNΔC (aa 172-329); GST (N, cleaved yes); made in house; host or cells: Escherichia coli BL21(DE3)
T3 sequence (Q07817 1-212, stated change not applied): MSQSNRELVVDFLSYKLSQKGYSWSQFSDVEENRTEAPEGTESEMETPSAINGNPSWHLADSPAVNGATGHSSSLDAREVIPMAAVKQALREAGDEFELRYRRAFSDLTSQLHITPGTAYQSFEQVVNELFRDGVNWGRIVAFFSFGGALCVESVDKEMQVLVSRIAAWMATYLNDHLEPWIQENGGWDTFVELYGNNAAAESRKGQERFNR
Experimental: as §2

[6] = target: T4, His-BFL-1ΔC (Homo sapiens, UniProt Q16548); test: Streptavidin pulldown from recombinant protein mixture, BFL-1; format: binding; conditions: equimolar mixture of recombinant MCL-1, BCL-XL, BFL-1 and biotinylated SAHB, silver stain
T4 construct: Recombinant anti-apoptotic BFL-1ΔC (aa 1-151) and its cysteine to serine mutants were cloned into PET17b; made in house; host or cells: Escherichia coli LOBSTR BL21(DE3)
T4 sequence (Q16548 1-151): T2 sequence (Q16548 1-151 C4S/C19S) with S4C, S19C
Experimental: as §2

[7] = target: T5, MCL-1 (Homo sapiens, UniProt Q07820); test: MCL-1 engagement in A375P lysates (streptavidin pulldown, MCL-1 western); format: binding; conditions: biotinylated SAHB
T5 construct: endogenous protein in lysates from the A375P melanoma cell line; endogenous in cells; host or cells: A375P melanoma cells (lysate)
Experimental: (§4) Cultured A375P and U937 cells were trypsinized or harvested, respectively, washed with PBS, and lysed by incubating with 1% CHAPS lysis buffer (1% CHAPS, 150 mM NaCl, 50 mM Tris pH 7.4, 100 μM DTT). The protein concentrations of the soluble fraction were measured using a BCA kit according to the manufacturer's instructions (Thermo Scientific). Lysate samples (1 mg) were incubated with vehicle or C-terminally biotinylated NOXA SAHBs (30 μM) overnight in 1% CHAPS lysis buffer at 4° C. Biotin capture was accomplished by incubating the mixture with high-capacity SA agarose (Thermo Scientific) for 2 hours at 4° C., followed by centrifugation and washing the pelleted beads three times with lysis buffer (1 mL). Bead-bound proteins were eluted by boiling in 10% SDS containing 10 mg/mL biotin for 10 minutes and then subjected to electrophoresis and western blotting using BFL-1 (Abcam, #125259) and MCL-1 (Rockland #600-401-394S) antibodies.

[8] = target: T6, FLAG-MCL-1 / tBID (Homo sapiens, UniProt Q07820); test: MCL-1/tBID complex disruption in 293T lysates; format: binding; conditions: FLAG immunoprecipitation
T6 construct: expressed in transfected cells; host or cells: 293T (lysate)
T6 sequence (Q07820 whole entry): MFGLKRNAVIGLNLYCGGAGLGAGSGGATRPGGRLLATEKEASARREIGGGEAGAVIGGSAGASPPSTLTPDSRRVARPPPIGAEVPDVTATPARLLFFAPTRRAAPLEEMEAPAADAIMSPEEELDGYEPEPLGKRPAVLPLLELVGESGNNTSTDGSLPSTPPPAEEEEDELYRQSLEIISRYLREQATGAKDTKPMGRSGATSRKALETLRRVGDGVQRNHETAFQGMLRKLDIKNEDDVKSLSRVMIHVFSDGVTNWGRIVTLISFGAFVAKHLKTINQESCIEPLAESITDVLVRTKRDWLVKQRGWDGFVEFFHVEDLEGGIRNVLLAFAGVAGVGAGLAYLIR
Experimental: as §3

[9] = target: T7, BCL-XLΔC / FITC-BID BH3 (Homo sapiens, UniProt Q07817); test: Competitive fluorescence polarization binding assay, BCL-XLΔC
T7 construct: Recombinant anti-apoptotic BCL-XLΔC (aa 1-212) and MCL-1ΔNΔC (aa 172-329); GST (N, cleaved yes); made in house; host or cells: Escherichia coli BL21(DE3)
T7 sequence (Q07817 1-212, stated change not applied): as the sequence (Q07817 1-212, stated change not applied) above
Experimental: (§5) Fluorescence polarization (FP) assays were performed as previously described (Pitter et al., 2008 (supra)). Briefly, direct binding curves were first generated by FITC-BID BH3 (25 nM) with serial dilutions of anti-apoptotic protein, and FP was measured at 5 min on a SpectraMax M5 microplate reader (Molecular Devices). For competition assays, a serial dilution of acetylated or warhead-bearing NOXA SAHB was added to the indicated recombinant protein at ˜EC75 concentration, as determined by the direct binding assay. FITC-BID BH3 (25 nM) was then added and fluorescence polarization was measured at equilibrium. IC50 values were calculated by nonlinear regression analysis of competitive binding curves using PRISM software (GraphPad).

[10] = target: T8, BFL-1ΔC C4S/C19S/C55S / FITC-BID BH3 (Homo sapiens, UniProt Q16548, C19S/C4S/C55S); test: Competitive fluorescence polarization binding assay, BFL-1ΔC C4S/C19S/C55S
T8 construct: Recombinant anti-apoptotic BFL-1ΔC (aa 1-151) and its cysteine to serine mutants were cloned into PET17b; hexahistidine (N); made in house; host or cells: Escherichia coli LOBSTR BL21(DE3)
T8 sequence (Q16548 1-151 C4S/C19S/C55S): T2 sequence (Q16548 1-151 C4S/C19S) with C55S
Experimental: as §5

[11] = target: T9, full-length BFL-1 (Homo sapiens, UniProt Q16548); test: Covalent crosslinking to full-length BFL-1, recombinant and HA-tagged expressed in 293T cells; format: binding; conditions: recombinant and expressed in 293T cells; somewhat reduced efficiency vs C-terminally truncated species
T9 construct: Recombinant full-length BFL-1 (aa-175) containing an N-terminal hexahistidine tag; made in house
T9 sequence (Q16548 1-175): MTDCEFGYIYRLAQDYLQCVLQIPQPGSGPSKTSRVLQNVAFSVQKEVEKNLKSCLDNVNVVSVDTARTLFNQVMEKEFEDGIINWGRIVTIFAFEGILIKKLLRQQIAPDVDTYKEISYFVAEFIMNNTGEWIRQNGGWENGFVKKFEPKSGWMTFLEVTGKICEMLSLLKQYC
Excerpt: We confirmed that both of our lead constructs could covalently crosslink to full-length BFL-1 protein, which bears a C-terminal helix that could potentially compete with D-NA-NOXA SAHBs for interaction at the canonical BH3-binding pocket in cancer cells. We generated recombinant full-length BFL-1 and expressed HA-tagged full-length BFL-1 in 293T cells, and then conducted crosslinking analyses in vitro and in treated cells, respectively.
Recombinant full-length BFL-1 (aa-175) containing an N-terminal hexahistidine tag was cloned into the PTYB1 vector (New England Biolabs) and purified as above except for the addition of a chitin affinity chromatography and DTT elution step. Protein purity and identity was confirmed by Coomassie staining and western blot analysis using a mouse monoclonal anti-His6 tag antibody (Abcam).
His-BFL-1ΔC C4S/C19S protein (5 μM) was pre-treated with 10 mM DTT in 50 mM Tris (pH 8.0) and 100 mM NaCl for 30 min at room temperature (final volume […]) and then combined with a 10:1 molar ratio of cysteine-reactive NOXA SAHB for an additional 1-hr incubation at room temperature. The samples were then boiled in 3× loading buffer with DTT and electrophoresed on 12% Bis-Tris gel, then subjected to Coomassie staining.

[12] = target: T10, native BFL-1 (Homo sapiens, UniProt Q16548); test: BFL-1 targeting in A375P lysates (streptavidin pulldown, BFL-1 western); format: binding; conditions: biotinylated SAHB, compared to acetylated construct
T10 construct: endogenous in cells; host or cells: A375P melanoma cells (A10); U937 AML cells (A12), lysates
T10 sequence (Q16548 1-175): T9 sequence (Q16548 1-175)
Experimental: as §4

[13] = system: BAX protein in U937 cells; test: Dynamic assessment of BAX protein levels (western blot); format: cell-based, human; conditions: 5 μM
Experimental: U937 cells were plated in 6-well plates (2×10^6 cells per well), treated with AZD0156 (5 μM), and the cells harvested and lysed at the indicated time points. Cell lysates were then subjected to electrophoresis and western blotting with BAX (Santa Cruz sc-493) and actin (Sigma #A1978) antibodies.

[14] = system: ATM S1981 and CHK2 S33/35 phosphorylation in U937 cells; test: Phospho-signaling analysis (western blot); format: cell-based, human; conditions: 2 hr
Excerpt: Cells were then washed with PBS, lysed in 1% CHAPS buffer, and the supernatant collected for protein concentration determination by BCA kit. Samples were subjected to electrophoresis and western analysis using 1:1000 dilutions of phospho-ATM (S1981, Cell Signaling, #4526), ATM (Abcam, #ab78), phospho-CHK2 (Ser33/35, Cell Signaling, #2665), CHK2 (Cell Signaling, #2662), and actin (Sigma #A1978) antibodies.

Compound: Cc1c(-c2c(-c3ccc(F)o3)sc3ncnc(O[C@H](Cc4ccccc4OCc4ccnn4CC(F)(F)F)C(=O)O)c23)ccc(OCCN2CCN(C)CC2)c1Cl [S63845]
- cytotoxic synergy upon co-treatment ([1]; MV4;11 cells (not dependent on BFL-1)): synergy in combination with ATM inhibition
- cytotoxicity, single agent ([1]; MV4;11 cells (not dependent on BFL-1, dependent on MCL-1)): single agent activity
- cytotoxicity, single agent [2]: no activity

Compound: AT8LRRAGDXLNFRQ (AT[R8]LRRAGD[S5]LNFRQ; staple 3-10; not fully specified (N-terminus); printed as AT8LRRAGDXLNFRQ) [Ac-NOXA-15 F32A, acetylated counterpart of D-NA-NOXA-15 F32A]
- MCL-1 binding / pull down [3]: detectable but minimal direct interaction
- competition with tBID for HA-BFL-1ΔC C4S/C19S interaction [4]: incapable of competing with tBID for HA-BFL-1 binding
- BCL-XL binding / pull down [5]: no binding
- BFL-1 binding / pull down [6]: no binding
- MCL-1 engagement [7]: approximately equivalent binding to MCL-1
- dissociation of FLAG-MCL-1/tBID interaction [8]: neither D-NA- nor Ac-NOXA15 F32A is able to dissociate the interaction

Compound: AT8LREFGDXLNFRQ (AT[R8]LREFGD[S5]LNFRQ; staple 3-10 (inferred); not fully specified (N-terminus); printed as AT8LREFGDXLNFRQ) [Ac-NOXA-15 R31E, acetylated counterpart of D-NA-NOXA-15 R31E]
- competition for FITC-BID BH3 binding to BCL-XLΔC [9]: neither Ac- nor D-NA-NOXA-15 R31E is able to compete
- competition for FITC-BID BH3 binding to BFL-1ΔC C4S/C19S/C55S [10]: neither D-NA- nor Ac-NOXA15 R31E competes
- MCL-1 engagement [7]: approximately equivalent binding to MCL-1
- dissociation of FLAG-MCL-1/tBID interaction [8]: neither D-NA- nor Ac-NOXA15 R31E is able to dissociate the interaction

Compound: JAT8LRRAGDXLNFRQ [D-NA-NOXA-15 F32A]
- covalent crosslinking to full-length BFL-1 [11]: covalent crosslinking to recombinant and expressed full-length BFL-1
- competition with tBID for HA-BFL-1ΔC C4S/C19S interaction [4]: near total inhibition of tBID co-immunoprecipitation
- BFL-1 binding / pull down [6]: striking competitive advantage for BFL-1 targeting over its acetylated counterpart
- BFL-1 binding / pull down ([6]; listed as D-NA-NOXA-15 F32A SAHB): notably more BFL-1 engagement
- MCL-1 engagement [7]: approximately equivalent binding to MCL-1
- targeting of native BFL-1 [12]: enhanced targeting of native BFL-1
- dissociation of FLAG-MCL-1/tBID interaction [8]: neither D-NA- nor Ac-NOXA15 F32A is able to dissociate the interaction

Compound: *AT8LRRFGDXLNFRQ [Ac-NOXA SAHB, acetyl-capped i, i+7-stapled NOXA BH3 peptide (aa 26-40)]
- BFL-1 binding / pull down [6]: little to no interaction with BFL-1

Compound: CN(C)CCCOc1ccc(-c2ccc3ncc4c(c3c2)n(C2CCOCC2)c(=O)n4C)cn1 [AZD0156]
- protein level of pro-apoptotic BAX [13]: time-dependent increase in the protein level of pro-apoptotic BAX
- ATM auto-phosphorylation at S1981 [14]: dose-responsive inhibition of S1981 auto-phosphorylation
- CHK2 phosphorylation at S33/35 [14]: potent blockade of CHK2 phosphorylation even at the lowest treatment dose
